From patent US20240044881A1 come the findings set out here.

Assay [1] deals with Type I ClyA-CS nanopore (Salmonella typhi) (UniProt Q8Z727). In words: single-channel current recording, planar lipid bilayer, -150 mV.
Assay [2] concerns the target Type II ClyA-CS nanopore (Salmonella typhi) (UniProt Q8Z727). The description is as above.
For assay [3], the target named is Type I ClyA-CS nanopore (Salmonella typhi) (UniProt Q8Z727).
Assay [4] has as its target Type II ClyA-CS nanopore (Salmonella typhi) (UniProt Q8Z727).
In assay [5] the target is Type III ClyA-CS nanopore (Salmonella typhi) (UniProt Q8Z727). Nature of the assay: single-channel current recording, planar lipid bilayer, -35 mV.
In assay [6] the target is Type I ClyA-CS nanopore (Salmonella typhi) (UniProt Q8Z727). Described as above.
Assay [7] addresses Type II ClyA-CS nanopore (Salmonella typhi) (UniProt Q8Z727). The description is as above.

In assay [1], “human thrombin (from UniProt P00734 328-622) (enzyme)” registered an HT Level 2 (-150 mV), IRES, % (residual current) of 23% and an HT Occupancy of L2 at -150 mV, % of 100%. In assay [2], this substance showed an HT Level 2 (-150 mV), IRES, % (residual current) of 31% and an HT Occupancy of L2 at -150 mV, % of 100%. This substance also gave an HT Dwell time at -150 mV in assay [3] of 1 ms. In addition, the HT Dwell time at -150 mV in assay [4] was found to be 235 ms. Further, in assay [5], the HT Level 2 at -35 mV, IRES % (residual current) was found to be 32%; the HT Occupancy of L2 at -35 mV, % was 100%; the duration of HT blockades at -35 mV was determined as 55 ms. Also, in assay [6], the HT Level 1 at -35 mV, IRES % (residual current) was determined as 56%; the HT Level 2 at -35 mV, IRES % (residual current) is 23%; the HT Occupancy of L2 at -35 mV, % is 30%; the occupancy of the more superficial binding site (level 1) at -35 mV, % turned out to be 70%. Moreover, in assay [7], the HT Level 1 at -35 mV, IRES % (residual current) stood at 68% and the HT Level 2 at -35 mV, IRES % (residual current) came out at 31%.
